First the molecules themselves.
B1: CIB2-V5 (calcium and integrin-binding protein 2, V5 tagged, wild type) [human] / TMC1-EGFP (EGFP tagged human full length TMC1) [human] (parent complex)
chain 1: MGNKQTIFTEEQLDNYQDCTFFNKKDILKLHSRFYELAPNLVPMDYRKSPIVHVPMSLIIQMPELRENPFKERIVAAFSEDGEGNLTFNDFVDMFSVLCESAPRELKANYAFKIYDFNTDNFICKEDLELTLARLTKSELDEEEVVLVCDKVIEEADLDGDGKLGFADFEDMIAKAPDFLSTFHIRI
chain 2: MSPKKVQIKVEEKEDETEESSSEEEEEVEDKLPRRESLRPKRKRTRDVINEDDPEPEPEDEETRKAREKERRRRLKRGAEEEEIDEEELERLKAELDEKRQIIATVKCKPWKMEKKIEVLKEAKKFVSENEGALGKGKGKRWFAFKMMMAKKWAKFLRDFENFKAACVPWENKIKAIESQFGSSVASYFLFLRWMYGVNMVLFILTFSLIMLPEYLWGLPYGSLPRKTVPRAEEASAANFGVLYDFNGLAQYSVLFYGYYDNKRTIGWMNFRLPLSYFLVGIMCIGYSFLVVLKAMTKNIGDDGGGDDNTFNFSWKVFTSWDYLIGNPETADNKFNSITMNFKEAITEEKAAQVEENVHLIRFLRFLANFFVFLTLGGSGYLIFWAVKRSQEFAQQDPDTLGWWEKNEMNMVMSLLGMFCPTLFDLFAELEDYHPLIALKWLLGRIFALLLGNLYVFILALMDEINNKIEEEKLVKANITLWEANMIKAYNASFSENSTGPPFFVHPADVPRGPCWETMVGQEFVRLTVSDVLTTYVTILIGDFLRACFVRFCNYCWCWDLEYGYPSYTEFDISGNVLALIFNQGMIWMGSFFAPSLPGINILRLHTSMYFQCWAVMCCNVPEARVFKASRSNNFYLGMLLLILFLSTMPVLYMIVSLPPSFDCGPFSGKNRMFEVIGETLEHDFPSWMAKILRQLSNPGLVIAVILVMVLAIYYLNATAKGQKAANLDLKKKMKMQALENKMRNKKMAAARAAAAAGRQ

Variants of B1 are the subject of this assay. Nature of the assay: FRET; cells co-expressing EGFP tagged human TMC1 (donor) and V5 tagged human CIB2; parent: 22; read off a plot.
Turning to chain 1 MGNKQTIFTEEQLDNYQDCTFFNKKDILKLHSRFYELAPNLVPMDYRKSPIVHVPMSLIIQMPELWENPFKERIVAAFSEDGEGNLTFNDFVDMFSVLCESAPRELKANYAFKIYDFNTDNFICKEDLELTLARLTKSELDEEEVVLVCDKVIEEADLDGDGKLGFADFEDMIAKAPDFLSTFHIRI, the response was around 19%.
As for chain 1 MGNKQTIFTEEQLDNYQDCTFFNKKDILKLHSRFYELAPNLVPMDYRKSPIVHVPMSLIIQMPELRENPFKERIVAAFSEDGEGNLTFNDFVDMFSVLCESAPRELKANYAFKIYDFNTDNFICKEDLELTLARLTKSELDEEEVVLVCDKVIEEADLDGDGKLGFADFEDMIAKAPDFLSTFHIWI, the response was around 19%.
Regarding chain 1 MGNKQTIFTEEQLDNYQDCTFFNKKDILKLHSRFYELAPNLVPMDYRKSPIVHVPMSLIIQMPELRENPFKERIVAAFSEDGEGNLTFNDFVDMFSVLCESAPRELKANYAFKIYDFNTDNFTCKEDLELTLARLTKSELDEEEVVLVCDKVIEEADLDGDGKLGFADFEDMIAKAPDFLSTFHIRI, the response was around 18%.
On to chain 1 MGNKQTIFTEEQLDNYQDCTFFNKKDILKLHSRFYELAPNLVPMDYRKSPIVHVPMSLIIQMPDLRENPFKERIVAAFSEDGEGNLTFNDFVDMFSVLCESAPRELKANYAFKIYDFNTDNFICKEDLELTLARLTKSELDEEEVVLVCDKVIEEADLDGDGKLGFADFEDMIAKAPDFLSTFHIRI, for which the response was around 6.5%.
Turning to chain 1 MGNKQTIFTEEQLDNYQDCTFFNKKDILKLHSRFYELAPNLVPMDYRKSPIVHVPMSLIIQMPELRENPFKERIVAAFSEDGEGNLTFNDSVDMFSVLCESAPRELKANYAFKIYDFNTDNFICKEDLELTLARLTKSELDEEEVVLVCDKVIEEADLDGDGKLGFADFEDMIAKAPDFLSTFHIRI, the response was around 3%.
As for chain 1 MGNKQTIFTEEQLDNYQDCTFFNKKDILKLHSRFYELAPNLVPMDYRKSPIVHVPMSLIIQMPELRENPFKERIVAAFSEDGEGNLTFNDFVDMFSVLWESAPRELKANYAFKIYDFNTDNFICKEDLELTLARLTKSELDEEEVVLVCDKVIEEADLDGDGKLGFADFEDMIAKAPDFLSTFHIRI, the response was around 5%.

For the origin of these results see publication PMC5491523 (2017).
